Results on 1 molecule are retold here after publication PMC2844784 (Cell host & microbe, 2010).

The target in the test is T1, recombinant Set7/9-KMT7 (UniProt Q8WTS6 1-366).
T1 sequence (looked up): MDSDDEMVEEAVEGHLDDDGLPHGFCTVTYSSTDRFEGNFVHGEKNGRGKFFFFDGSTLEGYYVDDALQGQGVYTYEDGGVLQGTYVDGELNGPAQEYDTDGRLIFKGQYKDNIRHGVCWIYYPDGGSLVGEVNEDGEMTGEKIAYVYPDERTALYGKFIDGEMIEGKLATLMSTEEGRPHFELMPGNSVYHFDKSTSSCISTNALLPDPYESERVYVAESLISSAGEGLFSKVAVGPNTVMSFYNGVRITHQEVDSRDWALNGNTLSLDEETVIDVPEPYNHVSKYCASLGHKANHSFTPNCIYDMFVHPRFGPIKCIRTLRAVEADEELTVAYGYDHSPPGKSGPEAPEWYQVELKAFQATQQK
Nature of the test: in vitro binding reaction.

B1: full-length synthetic Tat protein (aa 1-72) (natural protein)
chain: MEPVDPRLEPWKHPGSQPKTACTNCYCKKCCFHCQVCFITKALGISYGRKKRRQRRRAHQNSQTHQASLSKQ
Turning to B1, the binding result is listed as “binds”.
